For assay [1], the target named is T1, Atg7 with residues 290–294 deleted (S. cerevisiae, UniProt P38862 1-630, deletion of residues 290–294).
T1 sequence (looked up): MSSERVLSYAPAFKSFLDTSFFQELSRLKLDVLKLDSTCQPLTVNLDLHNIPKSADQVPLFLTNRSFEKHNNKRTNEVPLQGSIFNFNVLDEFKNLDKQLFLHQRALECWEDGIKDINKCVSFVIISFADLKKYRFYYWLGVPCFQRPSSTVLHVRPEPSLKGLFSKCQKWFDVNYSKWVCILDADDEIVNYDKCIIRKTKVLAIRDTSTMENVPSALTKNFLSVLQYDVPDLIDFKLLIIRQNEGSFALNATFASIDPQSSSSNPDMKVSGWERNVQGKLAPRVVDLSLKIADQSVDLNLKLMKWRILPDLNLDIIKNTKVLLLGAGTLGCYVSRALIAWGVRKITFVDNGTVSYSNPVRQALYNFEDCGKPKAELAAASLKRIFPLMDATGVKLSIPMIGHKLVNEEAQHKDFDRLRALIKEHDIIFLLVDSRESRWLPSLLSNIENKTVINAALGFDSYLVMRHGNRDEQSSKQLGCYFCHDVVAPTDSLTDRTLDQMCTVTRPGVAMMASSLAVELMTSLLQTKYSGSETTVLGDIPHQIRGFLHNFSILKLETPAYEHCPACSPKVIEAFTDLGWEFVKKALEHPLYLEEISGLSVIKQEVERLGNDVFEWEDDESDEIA
Briefly: cross-linking.

In assay [2] the target is T2, Atg7 D47A N50A K53A (S. cerevisiae, UniProt P38862 1-630, D47A | N50A | K53A).
T2 sequence (looked up): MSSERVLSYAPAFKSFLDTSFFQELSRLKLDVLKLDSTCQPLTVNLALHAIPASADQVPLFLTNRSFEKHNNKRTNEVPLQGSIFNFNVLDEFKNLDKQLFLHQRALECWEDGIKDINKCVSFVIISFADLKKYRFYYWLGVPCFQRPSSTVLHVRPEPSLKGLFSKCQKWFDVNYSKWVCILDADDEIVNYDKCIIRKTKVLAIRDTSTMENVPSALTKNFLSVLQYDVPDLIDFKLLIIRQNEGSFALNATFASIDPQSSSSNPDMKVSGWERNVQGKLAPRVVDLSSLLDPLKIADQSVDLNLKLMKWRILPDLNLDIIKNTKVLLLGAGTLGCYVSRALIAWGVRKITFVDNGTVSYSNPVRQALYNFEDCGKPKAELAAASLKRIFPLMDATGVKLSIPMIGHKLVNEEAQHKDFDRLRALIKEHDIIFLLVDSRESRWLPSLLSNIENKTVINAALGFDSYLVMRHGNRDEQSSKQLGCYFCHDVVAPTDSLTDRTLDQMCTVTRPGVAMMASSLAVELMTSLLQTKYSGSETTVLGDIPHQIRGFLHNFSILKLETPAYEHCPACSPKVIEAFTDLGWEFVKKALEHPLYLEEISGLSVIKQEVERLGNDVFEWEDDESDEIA
Description: cross-linking.

B1: Atg3(C41A C76A C83A) (enzyme, S. cerevisiae)
chain: MIRSTLSSWREYLTPITHKSTFLTTGQITPEEFVQAGDYLAHMFPTWKWNEESSDISYRDFLPKNKQFLIIRKVPADKRAEQAVEVEGPDVIMKGFAEDGDEDDVLEYIGSETEHVQSTPAGGTKDSSIDDIDELIQDMEIKEEDENDDTEEFNAKGGLAKDMAQERYYDLYIAYSTSYRVPKMYIVGFNSNGSPLSPEQMFEDISADYRTKTATIEKLPFYKNSVLSVSIHPCKHANVMKILLDKVRVVRQRRRKELQEEQELDGVGDWEDLQDDIDDSLRVDQYLIVFLKFITSVTPSIQHDYTMEGW
modifications: Cys234 reacted with bismaleimidoethane (BMOE)
Take B1: the binding result in assay [1] and in assay [2] was “binds” throughout.

Values taken from article PMC3515690 (Nature structural & molecular biology, 2012).
